Article PMC3337841

Target: FRET-GATE-16 (human) (UniProt P60520)
Sequence (P60520 whole entry): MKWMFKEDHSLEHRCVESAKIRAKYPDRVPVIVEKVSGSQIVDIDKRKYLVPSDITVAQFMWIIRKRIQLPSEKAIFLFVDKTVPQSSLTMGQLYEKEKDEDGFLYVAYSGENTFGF

catalytic efficiency (kcat/KM) of cleavage, FRET-based assay, 37°C, Buffer B: 1310 mol^−1S^−1
Substance: Atg4A (from UniProt Q8WYN0 1-398) (enzyme)
